Experimental data from patent US20080119384A1 (Janssen / Centocor, published 2008).
Non-standard residues stand in square brackets, D forms with d. No end group written: not given here. MPEG = methoxypoly(ethylene glycol), ~20,000 Da; 2Nal = N[C@@H](Cc1ccc2ccccc2c1)C(=O)O; Sar = CNCC(=O)O

Molecular target: T1, human TPO receptor, c-mpl (hTPOr) (human, UniProt P40238 26-635)
T1 sequence (looked up): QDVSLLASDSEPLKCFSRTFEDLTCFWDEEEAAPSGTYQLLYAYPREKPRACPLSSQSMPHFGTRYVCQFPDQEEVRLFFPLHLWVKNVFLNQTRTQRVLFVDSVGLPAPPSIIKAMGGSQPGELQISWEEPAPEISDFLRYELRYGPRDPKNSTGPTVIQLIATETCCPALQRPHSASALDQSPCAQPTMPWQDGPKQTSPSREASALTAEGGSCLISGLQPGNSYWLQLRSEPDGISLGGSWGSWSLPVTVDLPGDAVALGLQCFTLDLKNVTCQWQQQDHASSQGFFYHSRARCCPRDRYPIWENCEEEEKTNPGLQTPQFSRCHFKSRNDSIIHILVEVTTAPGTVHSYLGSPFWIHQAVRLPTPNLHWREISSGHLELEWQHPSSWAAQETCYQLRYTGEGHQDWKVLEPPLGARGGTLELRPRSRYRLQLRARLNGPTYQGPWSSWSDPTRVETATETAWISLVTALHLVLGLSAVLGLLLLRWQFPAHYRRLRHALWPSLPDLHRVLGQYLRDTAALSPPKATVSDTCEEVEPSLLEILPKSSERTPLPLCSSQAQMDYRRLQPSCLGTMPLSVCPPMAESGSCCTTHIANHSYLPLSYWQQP
Assay: cell-based or functional assay

B1: PEGylated TPO Compound No. 1 (peptide)
peptide: {MPEG}-IEGPTLRQ[2Nal]LAAR[Sar]K[Sar]RAAL[2Nal]QRLTPGEI
modifications: not fully specified (C-terminus); printed as (MPEG-Ile-Glu-Gly-Pro-Thr-Leu-Arg-Gln-(2-Nal)-Leu-Ala-Ala-Arg-(Sar))2-Lys-NH2; also: branched dimer: two 14-mers joined at their C-termini to Lys alpha and epsilon amines, residues 16-29 written C→N, Ile29 is the second N-terminus bearing MPEG, Lys C-terminal amide (lysinamide)
For B1, the “EC50, luciferase reporter (fos promoter) in Baf/3 cells expressing human TPO-R” value was ~5 pM.
